Experimental data taken from the DeepSol protein solubility set.

Assay: soluble on expression in E. coli; label from the status in PepcDB or PDB records

Soluble on expression in E. coli, not soluble:
MSETELVGKDELLKAMTMCNSCPDFNLNDLRGKGDNNYQLYDWLIHNLPTAQYVLGKLVELIFSNNLTTGDEKQDEILNNFLYGQTNPEGVTNYHVLVQSIKESIVYGRSGLRFLSKDDGLINVKCNHFGVAQILNKEHYGYKELIGFVIDKKGRAITDVDLREGEIDSEEYFKKGIFVFKNNDNILLPPEKFVNLRVDTSTPKGSSVFDSDIQRVLLIASVYKRLLYDIEYDGAGRLIFWADNANSNEESSNNFLNDTESATKRRQDKYKKEVEEIMKLVKDSNSTSVLAVSNAFKKMDHLPRVTKATEFLSYLNQEGEIMAQVFGVPNVLLGLGKISGNISMEKVIDNAMLNSIIPLRENIATQISSILTNNLKVPKVYFDKYELKSQSDINDRRLKVLTVAERLKALGKEDLANKIIEEEIQL
MSFDKKVTIAHLSDLHFASKNDRYLTARLDTMLGEFVRRKYDHLVMTGDLIDTASPALWTIIRDALVRHGLFDWTKTTVIPGNHDLIDLEEEMRFYNALNPDDRSRQHRVDDRLRQFNAIFRPLITDNGDALAGVPFVKVMRLGGISLSFVAVNTVDPWSGLDNPAGARGSVSPETLRALQEPGVRQVLDDTFIIGLCHHAYKVYGTGALVDQVFDWTMEFKNRDEYLKAMKNLGVRLVLHGHFHRFQVYQANGINFINGGSFRYSPERYGELVINADGRWSHRFVNLALKKLEHHHHHH
MSFEQTLEKYAALAVNVGVNIQPGQTLSISAPLEAVQFVRLVTEKAYKSGAKHVYVDWNDETLTRLKFDLAPEEAFAEFPSWKAHAREELAKEGAAFMSIYAENPDLLKGVEASRIATAHKVAGEAMKVYRDYVQADKVSWCVISVPTKEWAAKVFPDVAPEEQEAKLWDAIFKATRADLENPVEAWKEHDETLHTKVDYLNEKHYKALHYTGPGTDLTIELPEKHVWAGAGSLNEKNVPFMANIPTEEVFTMPLKTGVNGQVSSTKPLVFAGNIIDNFTLTFENGRIVDYKAEAGEEALKHLVETDEGSHFLGEVALVPHDSPISNTNVLFYNTLFDENASCHLAIGNAYAFNLVGGKTMSKEELAENGANASITHNDFMIGSAELDIDGITADGRHEPIFRKGNWAF
MSFFKKLKEKISKQTDTVTEKFKQGLEKTRNSFADKVNDLVFRYRKVDEDFFEELEEILIGADVGVSTVMELIDQLKEEVQRRNIQDPREVQAVISEKLIEIYKGDSDFTNEVNMQKDGLTVVLFVGVNGVGKTTTIGKMAHKFKSEGKSVLLAAGDTFRAGAIEQLEVWGDRVGVEVIKQGSGSDPAAVMYDAVQAAKARNVDVLLCDTAGRLQNKVNLMKELEKVKRVIEREVPGAPHEVLLVIDATTGQNGLSQAKTFREATNVTGIVLTKLDGTAKGGIVLAIRNEMDVPVKFVGLGEQMDDLQQFDPEQYVYGLFANLVETEEV
MSFNKEDQQDEALAFLLAVATVESGDAGAFRQRVTQYMTKAYGEDTSKMTMQEQGRAEAVSRLYARADNIYHRIKVNALPRLSRGF
MSFRFLILLLLASTLLVNSFPIGKDNESDESEVEVDTTTEAENIEVESQEASLDEQLNEVSEDPTREKRGLYSSERTEEEVEISHGMHHREKRHSEHLPHPDPPSHTAKRSTEHHRVKRSEGHPHEKKATHSPEGHIVAKDDHHGHEKRSSDSHHGHQKRSVDEHHGHQKKNAEDHHEHQKRSEHVEHQAEMHEHQKRSTQEVSGHPEHHLVKRSGGEGGHRHHRSTDQGLDEDEPEDEIQTDENDEVTEEPGSRKRRNTDTPMPSFPSDHDSEHSNSVAIRVKRVSRAGSSHKVRTLNKNRGNSKAGETTQNDSLTPNSGGVFNS
MSGATPVFTEINQIQGTGDKSPLISSGFISDDEYFVQGVVTARGESLLKGFYLQGLNDDFDPNSSEGIFVSTGSAPSLEIQPGALVCVKAKVQEYYGQTQLKPDTNNFLVQGHQAPVSVTELTINENETLAQALERHEGMQVKLTSHSDLRITRNFSFDYASKRNNMVLSHGEPLFKPTQLFAAESPEAIQLAEENAKRQITIESDNKAPNGEVPYFPDFATDSNQDGSADSYLRLGARIEGLEGVIAYSYGQYRLVTTNTISQENIITQAFDEDGDTLFNVERTDEPSIDDADLTITSFNVLNYFTSVAAGGLEHHHHHH
MSGEESMPDEEQKQSEEEEEMIRKRTLAMRKKVEEIMRNGAGLVRESNGLPKAGADYELYNSYPTFNTFMKRSEQRLNALMNKVTKSIGCAMRVPDVGSSVEHYTECVIEAQDNIAERAATLHEALKKAELDEIVKVPEFITKAAPTNRKTEAEVSAAMRTFSANIGTVLAEKFRERREEAAQMVVLEKPQKTYNISSDNSQAPFSSKLTVKHHAIEKRTGIVLHDDDESGRRDWISAETETEEEHPYIAEILHFKVPEAQLKSAECLKFTALKDTPLTMIDTKEKLEALTKTLNSVKEFAVDLEHHQMRSYLGLTCLIQISTRDEDFIIDPFPIWDHVGMLNEPFANPRILKVFHGSDSDVLWLQRDYGVHVVNLFDTYVAMKKLKYPKFSLAYLTLRFADVVLDKQYQLADWRARPLRNAMINYAREDTHYLLYSYDMLREQLLKQDTKDLANVYSESSDLCIKVYKKPVFNPKGYLTEIKFRFTLNTRQDYALTHLFKWRDVVARAEDESPHFVLPNHMMLSLSETLPRDVGGIYACCNPLPYFVKQRTGDILKIIVEARDVKLEKVGLSAKERNDAQEARGVMNDTMDHITSVLKSKIDFSHTRFDEERGEIYIDKTDEGMDIELKDHKESLLSVLQTAEIPSVETMIVVEKGKKSDNQKVKKLLNELDKFVTPFECYQMMMITKEKQEEEERKEAERKKLEEGDLPKTMFSHHDAPINRKPEFDAKLLNVDTLKLVPDDPNKPKDPEPSPMEESSSEPQIFDPSRFTDDQLLSKKAMKRKRDAARRNIDVSVVLGESSSSSDPKKKKSDDDAPVEDFDYEKADSSAFEKPVRDNNADFDPFHQKYRLKNKTKKNMAMKKSSNRQGTINYKK
MSGKLYICPTPIGNLEDITYRTLRTLKEVDLIAAEDTRHSIKLLNHFEISKPLTSYHEHNKDSKGDYLINKLIDGENIALISDAGMPGISDPGEEIIKQAIQNNIEIEVLPGA
MSGNSSTDMYLFKKSLKELKGKKGKGTELISVYVPAGRRLSDISQYLRQELSQSSNIKSKTTMKNVQSAIEVILQRLKLLKEPLEMGVIIFAGMIPRGGPGTEKMEVYVLEPPEPVKTFVYRCDSLFYTDPLEDFIQDTEVYGVILVDRNEATIGTVKGKTITVLKKLTSGVPGKFKAGGQSARRLERLIDDAAHQFMVRIGEYATESFMPILEEKKLKGLLLGGPGNTKNEFAEKDYLHHELKKKIIDTFDLCYTEEFGIRELLDKASDLLRDLDLMKEKNLIQKFFKELIKDDGGLSAYGEAQVMKYLEMGAIDTLIVTEDIGITRVTVKCNNCDYAQEVNVKTNEMFKFEEQLKTKACPTCGGAMYIDEEKDIIEHLSDLCHMHNTDIIVVSTDTEEGSQISRAFKGMAAILRYKL
MSHALRAVFLDHASLDLGDLDMRPLRAAFDELQLHAASQPQEVAARLHDARVAISNKVPIDAQCIAACPELELILISATGTNNIDLAAARERGIVVANCHGYGTPSVAQHTLALLLALATRLPDYQQAVRSGRWQQSSQFCLLDFPIVELEGKTLGLLGHGELGGAVARLAEAFGMRVLLGQLPGRPARADRLPLGELLPRVDALTLHCPLTEDTRGMLGSAELALMKPGAFLVNTARGGLVDEQALADALRGGHLGGAATDVLSVEPPRNGNPLLAPDIPRLIVTPHNAWGSREARQRIVGQLAENAEAWKAGR
MSHKLPSATDKYYFEVLRNEEKSEMLKFLLESFRVDEPLNRASKISCEEIEKCLDGALDRALKTESSILARSQDTHEIVGCMLNSVWRRDESLCTPGEEDKDFEFHTIRKEVAMVAEILNELHESFWSLRPDQDVVLHFEISSVSVNHRRQGLASKFMNWTENKKFLDTFGATGIATEASSLANQALLAKRGYSTIATTLLDTKVDPDTGKPILVCDDGTDRVNLMFKTF
MSHLVYVSRVVAAPIERVWPHLRDFNGLSAWHPGVADSRLEEGGRDDAPGTVRFLSLNPSGYVRERLLMLDDAGRSLRYAIIETDLPMRDYVAGVDLCPVTEGGGTFAQWWADFDVVAGANRDEVARLVGEGVFAAGLQALDQYLRGRQALEHHHHHH
MSIAIIIGTHGAAAEQLLKTAEMILGEQSNVAYIDFVPGENAETLIEKYNDRLTGLDTSKGVLFLVDTWGGSPFNAASRIAIDKENYEVVTGVNIPMLAETFMARDDEPSFAELVAVAVETGREGVKALKAPDVKSDKPETQPAAPVPTAKAPAVALGPNDHMKIGLARIDDRLIHGQVATRWTKETNVNRIIVVSDEVAADKMRKTLLTQVAPPGVTAHVVDVEKAIRVYNNPKYANDRVMLLFTNPTDVVRLVEGGVDIKSVNIGGMAFRQGKTQVNNAVSIDEKDIEAFNKLNARGIELEVRKVSSDSRLKMMDLISKLNK
MSIEEEDTNKITCTQDFLHQYFVTERVSIQFGLNNKTVKRINKDEFDKAVNCIMSWTNYPKPGLKRTASTYLLSNSFKKSATVSLPFILGDPVCMPKRVESNNNDTCLLYSDTLYDDPLIQRNDQAGDEIEDEFSFTLLRSEVNEIRPISSSSTAQILQSDYSALMYERQASNGSIFQFSSP
MSIKILKPGLFSTIQDIGRLGYQDLGFSEAGALDYYSLSIAQKLIGNHGPAIEYTLVGPNIEFLTDNTFAIVGGDSEPKLNGNKIDLLTVYHVRNGDQLDIGQITEGARGYIVFGHPLKINKVAQSYSTHVRSGMGGFKGRALKKYDVIATQVNHNYKTNLGKTIDFSSIPDNNYIHVIEGPQINEFDEETIAKFVNSDFKISDQSDRMGYRLKGNTVAPKNSADIISEPVALGSIQVPNDGNPIILLNDKQTIGGYTKIATVTQLDLRKLAQMKPGDIIQFKWITVEEASKKLKEFNTKFEQLLKRFDEQPLFNLNQLRHTSNKIAEIIKEDRLEHHHHHH

Soluble on expression in E. coli, soluble:
MSFLISFDKSKKHPAHLQLANNLKIALALEYASKNLKPEVDNDNAAMELRNTKEPFLLFDANAILRYVMDDFEGQTSDKYQFALASLQNLLYHKELPQQHVEVLTNKAIENYLVELKEPLTTTDLILFANVYALNSSLVHSKFPELPSKVHNAVALAKKH
MSGDENPASKPTPVQDVQGDGRWMSLHHRFVADSKDKEPEVVFIGDSLVQLMHQCEIWRELFSPLHALNFGIGGDSTQHVLWRLENGELEHIRPKIVVVWVGTNNHGHTAEQVTGGIKAIVQLVNERQPQARVVVLGLLPRGQHPNPLREKNRRVNELVRAALAGHPRAHFLDADPGFVHSDGTISHHDMYDYLHLSRLGYTPVCRALHSLLLRLLTQDQGQGGAPLPEPSP
MSGNQMAMGSEQQQTVGSRTVSVEEVPAVLQLRATQDPPRSQEAMPTRHNVRWEENVIDNENMNKKKTKICCIFHPQNEDEEECNHHSDDDGSSSSGSSSSESENEKDLDFNERRQRRLERRHRKLEKKRSYSPNAYEIQPDYSEYRRKQQEKKDMGHHHHHHSH
MSHLRIPANWKVKRSTPFFTKENVPAALLSHHNTAAGVFGQLCVMEGTVTYYGFANETATEPEVKVVINAGQFATSPPQYWHRVELSDDARFNIHFWVEEDHQGEEMYQQKKALEHHHHHH
MSIEWYAVHTLVGQEEKAKANLEKRIKAFGLQDKIFQVLIPTEEVVELREGGKKEVVRKKLFPGYLFIQMDLGDEEEPNEAWEVVRGTPGITGFVGAGMRPVPLSPDEVRHILEVSGLLGKKEAPKAQVAFREGDQVRVVSGPFADFTGTVTEINPERGKVKVMVTIFGRETPVELDFSQVVKA
